A word on the Kd: it is a measure of binding affinity in units of concentration.

Substitutions are numbered along the chain they refer to. In names and notes the source's numbering stands. Several values for one entry are separate records, joined by “and”; a condition that tells them apart may be missing. Equal entries are not always repeated. Entries after “also recorded” stand apart in the source; their conditions may differ. Non-standard residues stand in square brackets, D forms with d. Residues, ends and D or L forms follow the SMILES beside them. No end group written: not given here. fluorescein‑5‑maleimide = fluorescein-5-maleimide linked to an engineered C-terminal Cys; pT = C[C@@H](OP(=O)(O)O)[C@H](N)C(=O)O; pS = N[C@@H](COP(=O)(O)O)C(=O)O

Test [1] deals with T1, 14-3-3-ζ (Homo sapiens, UniProt P63104).
T1 construct: His10 (cleaved yes); made in house
T1 sequence (P63104 1-245): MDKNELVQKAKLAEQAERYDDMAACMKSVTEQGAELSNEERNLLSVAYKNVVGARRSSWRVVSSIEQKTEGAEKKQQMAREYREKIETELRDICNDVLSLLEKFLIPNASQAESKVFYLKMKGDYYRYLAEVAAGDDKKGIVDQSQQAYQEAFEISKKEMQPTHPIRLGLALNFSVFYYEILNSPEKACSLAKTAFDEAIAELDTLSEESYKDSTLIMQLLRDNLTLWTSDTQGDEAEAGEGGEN
Briefly: ITC of integrin tail fragments with 14-3-3-ζ. The class given is binding. The conditions noted are these: 298 K; for Kd: 20 mM sodium phosphate, 50 mM NaCl pH 6.5, integrin fragment in cell (80–200 μM), 14-3-3-ζ in syringe (0.75–2 mM), one-site model, repeated twice; for binding to 14-3-3-ζ by ITC, in words: pH 6.5, fragment in cell, 14-3-3-ζ in syringe. As for the experimental part: Phosphorylated α4 synthetic peptides were purchased from GL Biochem Ltd. (Shanghai). All recombinant proteins and synthetic peptides were prepared in 20 mM sodium phosphate and 50 mM NaCl (pH 6.5), and concentrations were determined by UV absorbance at 280 nm. ITC experiments using a VP-ITC200 instrument (MicroCal) were performed at 298 K as follows: the cell (volume, ~ 200 μl) contained the different integrin tail fragments, and the syringe (volume, ~ 40 μl) contained 14-3-3-ζ. A first injection of 2 μl was followed by 15 injections of 2.5 μl, with a stirring speed of 1500 rpm and a delay between injections of 180 s. A blank titration was performed by injecting 14-3-3-ζ into buffer to take the heat of dilution into account. Experiments were repeated twice for each sample. Raw data were processed and fitted with MicroCal Origin software using a one-site model where the error function is calculated as the sum of the squared deviations between the data and the model curve.

In test [2] the target is T1, 14-3-3-ζ. Briefly: 15N-1H HSQC NMR titration of 15N-labeled integrin tails with unlabeled 14-3-3-ζ. Particulars: 15N-labeled tail 0.1 mM, equimolar unlabeled 14-3-3-ζ; NMR buffer pH 6.5, 25 °C. Format: binding. As for the experimental part:
Samples were prepared in NMR buffer (pH 6.5) with 5% D2O, and experiments were performed at 25 °C. Titration experiments were collected on a 500-MHz spectrometer using a water flip-back-embedded gradient enhanced ^15N–^1H HSQC pulse sequence.[46] For the assignment of the α4 and β2 backbone resonances, ^15N–^13C integrin tails of 0.6 mM concentration were used to measure CBCA(CO)NH and CBCANH experiments on a Bruker 500-MHz instrument equipped with a cryogenic probe head. Data were processed using NMRPipe[47] and analyzed with the programs CARA/XEASY[48] or CCPN Analysis.[49]

Test [3] concerns the target T1, 14-3-3-ζ. Put plainly: Fluorescence polarization titration of fluorescein-labeled integrin tails with 14-3-3-ζ. Particulars: fluorescein-labeled tail, 1 μM; ex 485 nm, em 520 nm. The class given is binding. The procedure:
Fig. 6 Fluorescence polarization and ITC of interactions between integrin tails and 14-3-3-ζ. (a) Fluorescence polarization titrations of fluorescein-labeled β1A, β3 and α4 with 14-3-3-ζ. […] (b–d) ITC sensorgram of an in-cell 200 μM β1A, β2 (same as in Fig. 5a) or β3 samples injected with 2 mM 14-3-3-ζ.
For fluorescence polarization experiments, integrin tails were labeled with fluorescein-5-maleimide (Invitrogen) linked to an engineered C-terminal Cys residue. Measurements were performed using 96-well microplates (Corning) in a PHERAstar FS microplate reader (BMG Labtech). Fluorescein-labeled integrin tails at 1 μM concentration were excited at 485 nm, and polarization was recorded at 520 nm.
On the technique in general: In fluorescence polarisation assays a small probe gives low polarisation when free and higher when bound to something large.

The target in test [4] is T2, 14-3-3-ζ (UniProt P63104 1-245).
T2 construct: 14-3-3 protein zeta; Expressed from the same modified pET16b vector as the integrin tails (His10, 3C site); also called 14-3-3-ζ wt; unlabeled 14-3-3-ζ; not shown: His10, N-terminal, cleaved
T2 sequence: T1 sequence (P63104 1-245)
Put plainly: fluorescence polarisation; fluorescein-labeled integrin tails at 1 μM titrated with increasing amounts of 14-3-3-ζ; 96-well plates; excitation 485 nm, emission 520 nm; single-site model. Particulars: both partners purified.

Test [5] has as its target T2, 14-3-3-ζ. Briefly: ITC; integrin tail fragment in the cell (80-200 μM), 14-3-3-ζ in the syringe (0.75-2 mM); 298 K; 20 mM sodium phosphate, 50 mM NaCl, pH 6.5; one-site model. Particulars: both partners purified. A general note: ITC needs no label: the signal is the heat of the interaction.
Test [6] deals with T2, 14-3-3-ζ. Briefly: NMR titration; 15N-1H HSQC of 15N-labeled integrin tail (0.1 mM) before and after addition of unlabeled 14-3-3-ζ (wt or variant; equimolar, 0.1 mM); 20 mM sodium phosphate, 50 mM NaCl, pH 6.5, 5% D2O, 25 °C; read-out: loss of resonance intensity (I/Io). The conditions noted are these: both partners purified.

Regarding `CC[C@H](C)[C@H](NC(=O)[C@H](COP(=O)(O)O)NC(=O)[C@H](CCCCN)NC(=O)[C@H](Cc1ccc(O)cc1)NC(=O)[C@H](CCC(N)=O)NC(=O)[C@H](CCCNC(=N)N)NC(=O)[C@H](CCCCN)NC(=O)[C@@H](N)Cc1ccccc1)C(=O)N[C@@H](CC(C)C)C(=O)N[C@@H](CCC(N)=O)C(=O)N[C@@H](CCC(=O)O)C(=O)O` [α4-11pS] (H-FKRQYK[pS]ILQE-OH), the Kd in test [1] was > 300 µM and 315 µM.

`CC[C@H](C)[C@H](NC(=O)[C@H](Cc1ccc(O)cc1)NC(=O)[C@H](CO)NC(=O)[C@H](Cc1c[nH]c2ccccc12)NC(=O)[C@H](CO)NC(=O)[C@H](CC(=O)O)NC(=O)[C@H](CCCNC(=N)N)NC(=O)[C@H](CCCNC(=N)N)NC(=O)[C@H](CC(N)=O)NC(=O)[C@H](CCC(=O)O)NC(=O)[C@H](CCC(=O)O)NC(=O)[C@H](CCC(N)=O)NC(=O)[C@H](CC(C)C)NC(=O)[C@@H](NC(=O)[C@H](COP(=O)(O)O)NC(=O)[C@H](CCCCN)NC(=O)[C@H](Cc1ccc(O)cc1)NC(=O)[C@H](CCC(N)=O)NC(=O)[C@H](CCCNC(=N)N)NC(=O)[C@H](CCCCN)NC(=O)[C@H](Cc1ccccc1)NC(=O)[C@H](Cc1ccccc1)NC(=O)CN)[C@@H](C)CC)C(=O)N[C@@H](CC(N)=O)C(=O)N[C@@H](CO)C(=O)N[C@@H](CCCCN)C(=O)N[C@@H](CO)C(=O)N[C@@H](CC(N)=O)C(=O)N[C@@H](CC(=O)O)C(=O)N[C@@H](CC(=O)O)C(=O)O` [α4-30pS] (H-GFFKRQYK[pS]ILQEENRRDSWSYINSKSNDD-OH) gave a Kd in test [1] of 23.6 ± 2.1 µM.

Consider “GPLGSKAGFFKRQYKDILQEENRRDSWSYINSKSNDD [α4 S1011D, recombinant α4 integrin tail phospho-mimetic, S1011D]”, for which the “change of integrin tail resonances on addition of 14-3-3-ζ, in words” value (“change of integrin tail resonances” below) in test [2] is on record as “significant decrease in α4 amide resonance intensities”.

“GS KLLITIHDRKEFAKFEEERARAKWDTANNPLYKEATSTFTNITYRGT [β3 wt, recombinant β3 integrin tail, residues 742–788]”: the “binding to 14-3-3-ζ by ITC, in words” value in test [1] is on record as “Only β1A gave a binding curve that could be fitted”. In addition, the “binding to 14-3-3-ζ by fluorescence polarization, in words” value in test [3] was “No binding was detected”. Also, the “change of integrin tail resonances” value in test [2] is “intensity reduction for several resonances”.

For “GS KLLMIIHDRREFAKFEKEKMNAKWDTQENPIYKSPINNFKNPNYGRKAGL (GSKLLMIIHDRREFAKFEKEKMNAKWDTQENPIYKSPINNFKNPNYGRKAGL; left off: His10, N-terminal, cleaved) [β1D wt, recombinant β1D integrin tail, residues 752–801]”, the “change of integrin tail resonances” value in test [2] is “interacts with 14-3-3-ζ in a very similar way to β1A”.

With “GS RLSVEIYDRREYSRFEKEQQQLNWKQDSNPLYKSAITTTINPRFQEADSPTL (GSRLSVEIYDRREYSRFEKEQQQLNWKQDSNPLYKSAITTTINPRFQEADSPTL; left off: His10, N-terminal, cleaved) [β7 wt, recombinant β7 integrin tail, residues 747–798]”, the “change of integrin tail resonances” value in test [2] is “intensity reduction for several resonances”.

Consider “GSKALIHLSDLREYRRFEKEKLKSQWNNDNPLFKSATTTVMNPKFAES [β2 wt, recombinant unphosphorylated β2 integrin tail, residues 724–769]”, for which the “binding to 14-3-3-ζ by ITC, in words” value in test [1] was “only a weak interaction; also recorded: the interaction is weak, in the millimolar range”; in test [1] (listed as β2), “Only β1A gave a binding curve that could be fitted”. Also, the “change of integrin tail resonances” value in test [2] is “selective broadening of β2 resonances”.

As to “KALIHLSDLREYRRFEKEKLKSQWNNDNPLFKSA[pT]TTVMNPKFAES [β2-45pT]”, the equilibrium dissociation constant (Kd) in test [1] was determined as 7.9 ± 3.1 µM.

Regarding “YKSAVpTTVVNP [β1-11pT, synthetic β1 phospho-threonine peptide, residues 783–793]”, in test [1], the “binding to 14-3-3-ζ by ITC, in words” value is “no binding”.

As for “paxillin residues 111–128: phosphorylated peptide containing a putative 14-3-3 binding motif, corresponding to paxillin residues 111–128 (VGEEEHVYSFPNKQKSAE; also: phosphorylated; UniProt P49023 111-128, looked up, fragment)”, the “binding to 14-3-3-ζ by ITC, in words” value in test [1] is “no interaction was detected by ITC”.

As to “paxillin: construct of the N-terminal region of paxillin (residues 1–323) that included all LD motifs”, in test [1], the “binding to 14-3-3-ζ by ITC, in words” value is listed as “no pairwise interaction was detected by ITC”.

Consider GSKLLMIIHDRREFAKFEKEKMNAKWDTGENPIYKSAVTTVVNPKYEGKC(fluorescein‑5‑maleimide) (domain or fragment) [fluorescein-labeled β1A integrin tail], for which binding in test [4] was put at a Kd of 95 ± 16 µM.

B1: α4-30pS phospho-peptide (peptide)
peptide: GFFKRQYK[pS]ILQEENRRDSWSYINSKSNDD
notes: integrin α4 cytoplasmic tail, residues 1003-1032 of UniProt P13612; S1011 is phospho-serine; also called phosphorylated α4-derived peptide; source: synthetic peptide, bought: GL Biochem Ltd. (Shanghai)
Take B1: the dissociation constant Kd in test [5] is around 24 µM.

B2: α4-11pS phospho-peptide (peptide)
peptide: FKRQYK[pS]ILQE
notes: integrin α4 cytoplasmic tail, residues 1005-1015 of UniProt P13612; S1011 is phospho-serine; also called short phosphorylated α4 integrin peptide; source: synthetic peptide, bought: GL Biochem Ltd. (Shanghai)
Molecule B2 yielded a Kd in test [5] above 300 µM.

B3: α4 integrin cytoplasmic tail, wild type (domain or fragment, human (from the printed UniProt entry))
chain: GPLGSKAGFFKRQYKSILQEENRRDSWSYINSKSNDD
notes: residues from the cloning tag at the N-terminus; integrin α4 cytoplasmic tail, residues 1001-1032 of UniProt P13612; 15N-labelled for NMR, unlabelled for ITC; also called α4 wt; full-length α4 integrin tail; not shown: His10, N-terminal, cleaved
Regarding B3, the binding result in test [6] is listed as “binds”.

B4: β2-11pT phospho-peptide (peptide)
peptide: PLFKSATTTVM
modifications: also: phospho-threonine at 758
notes: integrin β2 cytoplasmic tail, residues 752-762 of UniProt P05107; T758 is phospho-threonine; also called short β2 phospho-peptide; source: synthetic peptide
For B4, binding in test [5] was put at a Kd of 4 µM.

B5: β2-45pT phospho-peptide (peptide)
peptide: KALIHLSDLREYRRFEKEKLKSQWNNDNPLFKSATTTVMNPKFAES
modifications: also: phospho-threonine at 758
notes: integrin β2 cytoplasmic tail, residues 724-769 of UniProt P05107; T758 is phospho-threonine; also called long β2 phospho-peptide; source: synthetic peptide
Molecule B5 returned a dissociation constant (Kd) in test [5] of 8 µM.

B6: β1A integrin cytoplasmic tail, wild type (domain or fragment, human (from the printed UniProt entry))
chain: GSKLLMIIHDRREFAKFEKEKMNAKWDTGENPIYKSAVTTVVNPKYEGK
notes: residues from the cloning tag at the N-terminus; integrin β1A cytoplasmic tail, residues 752-798 of UniProt P05556; 15N-labelled for NMR, unlabelled for ITC; also called β1A wt; not shown: His10, N-terminal, cleaved
In turn, B6 yielded a Kd in test [5] of 280 ± 40 µM.

B7: α4 integrin cytoplasmic tail S1011D (domain or fragment, human (from the printed UniProt entry))
chain: B3 chain with S16D
notes: residues from the cloning tag at the N-terminus; integrin α4 cytoplasmic tail, residues 1001-1032 of UniProt P13612, with S1011D; 15N-labelled for NMR, unlabelled for ITC; also called α4 S1011D; α4 phospho-mimetic; not shown: His10, N-terminal, cleaved
Consider B7, for which, in test [5], the dissociation constant Kd was around 60 µM.

These data come from paper PMC4068353, “Characterization of 14-3-3-ζ Interactions with Integrin Tails” (Journal of Molecular Biology, 2013).
